{"source": "paper PMC11326279", "about": "(bioRxiv, 2024)", "binders": {"B1": {"name": "HflC, endogenous (natural protein, E. coli (endogenous in BL21(DE3)), UniProt P0ABC3 1-334, looked up)", "chain": "MRKSVIAIIIIVLVVLYMSVFVVKEGERGITLRFGKVLRDDDNKPLVYEPGLHFKIPFIETVKMLDARIQTMDNQADRFVTKEKKDLIVDSYIKWRISDFSRYYLATGGGDISQAEVLLKRKFSDRLRSEIGRLDVKDIVTDSRGRLTLEVRDALNSGSAGTEDEVTTPAADNAIAEAAERVTAETKGKVPVINPNSMAALGIEVVDVRIKQINLPTEVSEAIYNRMRAEREAVARRHRSQGQEEAEKLRATADYEVTRTLAEAERQGRIMRGEGDAEAAKLFADAFSKDPDFYAFIRSLRAYENSFSGNQDVMVMSPDSDFFRYMKTPTSATR"}, "B2": {"name": "HflK, endogenous (natural protein, E. coli (endogenous in BL21(DE3)), UniProt P0ABC7 1-419, looked up)", "chain": "MAWNQPGNNGQDRDPWGSSKPGGNSEGNGNKGGRDQGPPDLDDIFRKLSKKLGGLGGGKGTGSGGGSSSQGPRPQLGGRVVTIAAAAIVIIWAASGFYTIKEAERGVVTRFGKFSHLVEPGLNWKPTFIDEVKPVNVEAVRELAASGVMLTSDENVVRVEMNVQYRVTNPEKYLYSVTSPDDSLRQATDSALRGVIGKYTMDRILTEGRTVIRSDTQRELEETIRPYDMGITLLDVNFQAARPPEEVKAAFDDAIAARENEQQYIREAEAYTNEVQPRANGQAQRILEEARAYKAQTILEAQGEVARFAKLLPEYKAAPEITRERLYIETMEKVLGNTRKVLVNDKGGNLMVLPLDQMLKGGNAPAAKSDNGASNLLRLPPASSSTTSGASNTSSTSQGDIMDQRRANAQRNDYQRQGE"}}, "target": "FtsH with a C-terminal FLAG epitope, chromosomally encoded (E. coli, UniProt P0AAI3 1-644)", "sequence (P0AAI3 whole entry)": "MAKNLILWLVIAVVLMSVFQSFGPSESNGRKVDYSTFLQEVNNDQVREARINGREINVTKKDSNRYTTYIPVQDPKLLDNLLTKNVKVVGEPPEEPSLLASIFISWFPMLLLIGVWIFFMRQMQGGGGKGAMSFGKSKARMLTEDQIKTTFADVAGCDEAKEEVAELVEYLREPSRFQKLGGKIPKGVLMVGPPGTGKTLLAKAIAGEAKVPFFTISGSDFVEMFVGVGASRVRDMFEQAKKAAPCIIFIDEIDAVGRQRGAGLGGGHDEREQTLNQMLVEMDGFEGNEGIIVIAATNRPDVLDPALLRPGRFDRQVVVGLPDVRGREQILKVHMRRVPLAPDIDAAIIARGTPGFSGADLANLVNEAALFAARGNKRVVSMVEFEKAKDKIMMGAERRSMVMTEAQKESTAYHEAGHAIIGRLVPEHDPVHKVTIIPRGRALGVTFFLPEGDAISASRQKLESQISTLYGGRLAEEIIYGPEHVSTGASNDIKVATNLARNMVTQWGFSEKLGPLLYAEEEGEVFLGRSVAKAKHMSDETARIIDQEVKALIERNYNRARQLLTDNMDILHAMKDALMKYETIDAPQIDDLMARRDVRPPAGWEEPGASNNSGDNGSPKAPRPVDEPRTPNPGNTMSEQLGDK", "assay": "cryo-EM structure", "data": [{"binder": "B1", "values": [{"measurement": "binding result", "result": "binds"}]}, {"binder": "B2", "values": [{"measurement": "binding result", "result": "binds"}]}]}
